The assay has as its target soluble ectodomain from HSV-2 glycoprotein D (amino acids 26-331) containing a 6-histidine tag (herpes simplex virus 2 (HSV-2)) (UniProt Q69467). The experiment in a line: ELISA, gD-6H coated at 15 µg/ml, HSV8 in 5-fold dilutions from 10 µg/ml, anti-human IgG-HRP. In general terms: An ELISA detects its analyte on a solid surface through an enzyme-linked reagent.
Chain of UniProt Q69467 (Q69467 26-331, tags left off): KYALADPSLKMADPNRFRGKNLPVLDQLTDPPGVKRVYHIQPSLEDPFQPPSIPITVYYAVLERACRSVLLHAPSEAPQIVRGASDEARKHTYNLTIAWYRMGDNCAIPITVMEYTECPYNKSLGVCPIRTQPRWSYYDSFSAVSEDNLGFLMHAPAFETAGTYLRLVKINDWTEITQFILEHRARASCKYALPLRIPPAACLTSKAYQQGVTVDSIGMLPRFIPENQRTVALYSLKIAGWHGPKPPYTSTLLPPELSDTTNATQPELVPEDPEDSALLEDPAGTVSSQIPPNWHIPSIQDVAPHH

For human IgG1 monoclonal antibody HSV8, the lowest concentration with robust binding worked out at 3 nM.

The record behind these values is US20250222112A1.
